The values that follow come from paper PMC6958382, “27th Annual GP2A Medicinal Chemistry Conference” (Pharmaceuticals, 2019).

The assay deals with T1, β2-adrenergic receptor (β2-AR) (Homo sapiens (assumed), UniProt P07550).
T1 construct: β2-adrenoceptor (β2-AR), crystallised in the active state with a catecholamine-type agonist (super-epi or super-iso) and Nb6B9; Conference abstract (poster P20) with no methods; also called ß2-AR
The assay is described as follows: crystal structure; co-crystal structures of β2-AR with super-epi or super-iso, bound to Nb6B9; active state of the receptor (Figure 17 legend). The conditions noted are these: both partners purified.

B1: Nb6B9 (VHH)
VHH: QVQLQESGGGLVQAGGSLRLSCAASGSIFALNIMGWYRQAPGKQRELVAAIHSGGTTNYANSVKGRFTISRDNAANTVYLQMNSLKPEDTAVYYCNVKDFGAIIYDYDYWGQGTQVTVSS
On to B1, for which the binding result is given as “binds”.
